What follows are molecules tested on HEK293 cells. Conditions: luminescence from secreted Gluc in supernatant 24 hours after transfection of HEK293 cells; circular RNA encoding Gluc with the named IRES (UTR truncated to 675 nt).
Assay type: cell-based, human

Molecule | Expression
Rabovirus A (nucleic acid, Rabovirus A) DNA: CTACGGATATTTGCATGACCCGCTTTCTATCGCCCCAACAATCCCCTTTGTAACCACAAGCTTTACTCAGGCTAGCAGCCCGACTAGCTGTTTGGAAGAAAAGGCTAGGGCACACACCAACAACACCGACCCCACTGGTCGAAGGCCGCTTGGCAATAAGACTGGTGGAACAGGGTCGCCTGTAGTTGTTTGGAACATTCTTTCTAATGACTTTGTCAGCGGTGCTACTCACACCGTAACTCTTCTACCCTATCCCCACGCTTGTGGAACTAGGAGGGGATGAGTGATTCAAGTAAGTACTGTCAGAATGGTGAAAATGATCTGATTCTGAAACGCTATGGATCCATCGAAAGATGGGGCTACACGCCTGCGGAACAACACATGGTAACATGTGCCCCAGGGGCCGAAAGCCACGGTGATAGGATCACCCGTGTAGTTTGAGATCATATCAATGTTCATAGTCTAGTAAGATGATTTGAAATCTAACTGAGCTGATGGCTAACTGCTTGTCTTATTGCGGCCTAAGGATGTCCTGCAGGTACCTTTAGATAACCTTAAGAGACTATTGATCTGAGCAGGAGCCAAAGTGGTCTTTCCCAGCTTTGGTTAAAAAACGTCTAAGCCGCGGCAGGGGGCGGGAGGCCCCCTTTCCTCCCAAAACTTAATATTGATTGT | 2.88E+06
Picornavirus HK21 (nucleic acid) DNA: AAACGGGAGGATCGGCTTTGGCTTATCCTCTTAATAGTCTACAAAACTGGGCTGACTGGTGGGGGAGCTACTAGATCCGGGAGAGGACTAGTTACCCCGCGTAACTTCCCTTTTTGTCACTCCCTCCACCTACCCCTTCCCTGTCCCTTAGACTCTTAAGTAGGTGTGCAGGCCTGGCCCCCCGGAAATGGGCAAATCGGACGTTTGCGTGTAGGGTCGTTCTGAAAGGTGGGGCCCACTCCACCGTAGTAGGATCTTCCTGTTTCACGTTTAAACCTCTCCGGGCAGGTATCGCTAGACACTAGGCTGTATAGGATGGCACGCACTTAGGTTTCGCACCTTCCTAGTGCGCCAAGATCCCGCTTTTGAGCTCAAGTACATGGTTCTTTGTAAGATGTCTAACCAGAGGAGGTGGTGCTGAAATATTGCAAGCCACTCTGGCGAACGTCCACTGCATTGCCTGGAACAGGCTCTCTAGCGCCCTCCACTGGTAGCGCGGTGGTGGGTTAGTAGGATACCTATATGGACAGGGGATGCGGGAATACCCCTCACTAGCTAGTGACTGGTTGATCGACTGGCGGCGGATCCAGTGATACTTGCATAATCCGCAGACTTGGGAG | 4.09E+05
Seneca valley virus (nucleic acid) DNA: TTTGAAATGGGGGGCTGGGCCCTGATGCCCAGTCCTTCCTTTCCCCTTCCGGGGGGTTAACCGGCTGTGTTTGCTAGAGGCACAGAGGGGCAACATCCAACCTGCTTTTGCGGGGAACGGTGCGGCTCCGATTCCTGCGTCGCCAAAGGTGTTAGCGCACCCAAACGGCGCACCTACCAATGTTATTGGTGTGGTCTGCGAGTTCTAGCCTACTCGTTTCTCCCCCGACCATTCACTCACCCACGAAAAGTGTGTTGTAACCATAAGATTTAACCCCCGCACGGGATGTGCGATAACCGTAAGACTGGCTCAAGCGCGGAAAGCGCTGTAACCACATGCTGTTAGTCCCTTTATGGCTGCAAGATGGCTACCCACCTCGGATCACTGAACTGGAGCTCGACCCTCCTTAGTAAGGGAACCGAGAGGCCTTCGTGCAACAAGCTCCGACACAGAGTCCACGTGACTGCTACCACCATGAGTACATGGTTCTCCCCTCTCGACCCAGGACTTCTTTTTGAATATCCACGGCTCGATCCAGAGGGTGGGGCATGACCCCTAGCATAGCGAGCTACAGCGGGAACTGTAGCTAGGCCTTAGCGTGCCTTGGATACTGCCTGATAGGGCGACGGCCTAGTCGTGTCGGTTCTATAGGTAGCACATACAAAT | 1.46E+07
Shingleback nidovirus 1 (nucleic acid, Shingleback nidovirus 1) DNA: CTGTGAGTACCGACAGGCTCGAAGTCTATTATGAGGCGTCGAAACAGAAAACCTGTAACAACTCCGGTTTCATCTATCACTGCCGTCAAGAGGCAGAAGAGGACGACCACGTGTCACCAGATCACTTGTATCTGTTTCAGTCAGGAAGTCAACTTTTCGACGAAGTTCGACCATTCATCGACCCGCTGAAAAGCGTAGAAGTCGATGAAGATGAGCTCCAAAGAGCCATCGCCGATTTCGACAACCAAAGTGACTGTTTCCACTCCTTCGAGCTCGTGAATTTCGAGCTGAAACAACAAATCAACGAGAACGAGTGGTACGGTTATTATAATTACGACAACCAAAACTGCAAAGTTCAGTTGCCAGTCACATGTCGAATCGAGGACGTAACCTGGGATCAGGTTTACGTG | 2.62E+05
Livupivirus (nucleic acid, listed as Livupivirus sp.) DNA: TATCTACATGGGGATCCAGGCTGTATGGAATGTCTGTCTTAACAAGCACTATACCAGAAAGATCCACCCAAAGTGGTGGGACTGGGACTGTGAGGTGAGAAATCCCGAAACCAGCCTTCTCAAGCGTCGGACGATCTTTCTGTTTTAGTGAACACCTTGCCTTTTAAATGGATGACAACACCCCTTCAGCAAATCGCAATCTGAAATCCCAAAAGACTGTTTAGCCGAACTCTGGTAATCACTCCGGAGAAGTAGGATACGCAGCCCCTGTGGACTCTTGATTTCAGGACTCAAGGTAGCTAGAGCTGGAACTTCATGGAATGACAAAGGAATATATGCACATTGTGCGCTTTCCTGGCCTTGTAGCCCGTCGTGAGGATATGTCGTTGGGAATCGACATCTTAGTCCAGTACTGCTTGATAGAGTGTCGGCTGGCACAGTTACCTGAGAATAAGTCAGTTGTACTTAACATGAACAAAAAAAATAACTACCACAACTACCACAATCTACCAATACTTGAATTATGCTGAATCTCGTACAGTAAAAACGTTCCGTGGAAGGACAAGTATTGAAGTGCGGTTACATCATCCGATACGCGCTGGATCCCTCA | 2.10E+05
Rodent hepatovirus (nucleic acid, listed as Hepatovirus sp.) DNA: TTCAAAGAGGGGTCCGGGATTTTCCTGGTCCCCCTCTTTGGGCACCCTTGGCTCGGGGGTGTGAATACCGTGCTCGCGTTTGCCGTGCGTTAACGGCTTCATTTATGTTTGTTTGTCTGTTTTATTATGTTGGTTTGTCTGTTTGTTATGTTGGTATTGTTCGTGTTTAATGTTATGACCACATTACACTCCAGCCAATGAAGAACAGATGGTGCGGTTATTGCTGGCGGAATTCCTAACGTCCTGGATCCGTTGGTACGCATCACAAAACAATTTGCAGAGAGAGTGGTGAAACGGCTTGGGAATCCCTGAGTACAGGGAAATCACACTGATAGCTCATCTTGGCTGTTTTCAGTCATGGACCTTATGCAGTGTAATTTGGGTGTACCCCCCATAGCTTAGGAGGAATGTTCTGTCTTGGCACTAGAGTGGGACGCTGATGCCTCCGTGTCTAGGATGGTCTAAGGGACAGAATGGGGTGCCTCTGATGCCATACTACCTGATAGGGTGCTCTCACGGCCTCTGCATCTTAGTGAGAAGTTCAATTTT | 1.39E+05
Picornavirales Tottori-HG1 (nucleic acid) DNA: AGCCATGAACTAGTGTGCGATTCCCACAGTGTTGGTCGAAAGCCCCGCACTGTCTACTCGCATATTTGACTCCAGTCCTTCCGCAGCCAGCGGTTAGGTTCTGGTTAAAGTGCATTATGTGCACGGCGCCACGCAGAACTGCCAGAAATGGTAAGCTGCGCCCAACGCCAACGGTTTGTGTATCCCGTTAGTCACACGTTTACAGCTGTTCGTTAACAGTAGGGTTTTGTCGACCCGGACCCCTTAATGCGCGCGAATTCAACCGCGCCTAGTCGGCAATGGTATCATTTAATCCCATGCACTACGGGAGAAATTTGAGACCAAAGAATTCCTGAGGGCCACTGCTTGCTCTAAGTGCAATGCCTCGGGAGACTTCTGTCAGGAGCCTAGCGGCTTTCAACCGCGACAGCTAACTCCTGCGGGATGTTTGGTGTCCATACTTACTGGCGTCCTCACAACGCTAAGTGGATGTTGTCCACAGGTAGGCAAACACCGAGCCCCACATTCAGGAGACCTGTATGAACGATCCTATCAGCATTAGAGTTGGAATTGGGTGTGCTAACGTCCGCATAAGTGCACCCCGTGGTAACGCTGGGAAACTATCCAGCGCAACGTACTGTCCTCAATGTCTAGGGAAGGACCGCCCTAAGCGTACAACCGGGCCATGTGTCGAGC | 9.54E+04
Pigeon picornavirus B (nucleic acid) DNA: TTTATTTAGCTGTTAAGTTTTATTTGTGCCGAGACCCCATAGTAGGATCTTGGTGTTCCACATTAAGCTCTCCCGACCACACATCCAAACGATAGGCGGTGTAAGGGCTCCCTGGCTAAGTGTTTACTCATTGCTAGGGAAGTGTTGCGACCCGTTACCAGTAGGAATACAGGAGGTCTTAGTTGCCTAACCAGATAAAGTGGTGCTGAAATATTGCAAGCTCAATGTCTGGCGAACGACGGACTACCGTTGAACTATTGTTAACGCCCGCGTGTGTAGGCAACACACGGGTTAGTAGGTCACTTACATTGACATCCGTGCCGGGAAAGCGGATCTGAGCTATCGATTGCCTGATAGGGTGCCGGCGGGCGCGGTACGTGTGGTATAGTCCGCTGTCTTGGGGTATGGCGTCTACTCGGTTTTGTTGTCGTTTTGGAATGTCCCATGTCGGAGATGTCGTTACCGGTGTTTGCTTTACTTGTGCACGAATAAGAAAACAGAGTTTGGAGTTTTGGAAGTTAATGGATAACATCAAGTTTCCATTGCGTTCCTCGTGCATTTTAGGCCAGAAAATCGACCACAAAATCGAGA | 1.24E+05
Porcine enterovirus 9 (nucleic acid, listed as Enterovirus sp.) DNA: GAACCTTAGAAGTTTACACAAACAAAGACCAATAGGAGTCCAACACCCAGTTGGATTGCGGTCAAGCACTTCTGTTTCCCCGGACCTAGTAGTGATAGGCTGTACCCACGGCCGAAGATGAACCCGTCCGTTATCCGGCTACCTACTTCGGGAAGCCTAGTAACATTCTGAAGTCTCTGAGGCGTTTCGCTCAGCACGACCCCGGTGTAGATCGGGCTGATGGGTCTCCGCATACCCCACGGGCGACCGTGGCGGAGGCCGCGTTGGCGGCCCGCCTATGGCGAAAGCCATAGGACGCCTCTTAGATGACAGGGTGTGAAGAGCCTACTGAGCTGGGTAGTAGTCCTCCGGCCCCTGAATGCGGCTAATCCTAACCACGGAGCGTCCACCAGCAATCCAGCTGGCAGGGCGTCGTAACGGGCAACTCTGTGGCGGAACCGACTACTTTGGGTGTCCGTGTTTCCTTTTGATCCTATTTTGGCTGCTTATGGTGACAACGATAAGTTGTTATCATAAAGCTCTTGGGTTGGCCACCTGGAAAAAGTTATCAGTGTTTGATATTGTTCGGCTCTCACGCCTACCAATAAGACAAGCCCTATATTTACTTGTTGCATTTTACTCGTCAGAAGAAATCACAGAGTATCATTTGGATTTGTTACTCACATTAAGGACAAG | 3.20E+07

Source: patent US20230226096A1 (Orna Therapeutics, Inc., priority 2020, published 2023)
